These results are taken from patent publication US7091002B2, “Carboxypeptidases and nucleic acids encoding same” (Novozymes, Inc., priority 1996, dated 2006).

What all share (assay type): biochemical
Data set [1] concerns the target T1, Aspergillus oryzae ATCC 20386 carboxypeptidase I (Aspergillus oryzae, UniProt Q2TZ11).
T1 sequence (Q2TZ11 19-555): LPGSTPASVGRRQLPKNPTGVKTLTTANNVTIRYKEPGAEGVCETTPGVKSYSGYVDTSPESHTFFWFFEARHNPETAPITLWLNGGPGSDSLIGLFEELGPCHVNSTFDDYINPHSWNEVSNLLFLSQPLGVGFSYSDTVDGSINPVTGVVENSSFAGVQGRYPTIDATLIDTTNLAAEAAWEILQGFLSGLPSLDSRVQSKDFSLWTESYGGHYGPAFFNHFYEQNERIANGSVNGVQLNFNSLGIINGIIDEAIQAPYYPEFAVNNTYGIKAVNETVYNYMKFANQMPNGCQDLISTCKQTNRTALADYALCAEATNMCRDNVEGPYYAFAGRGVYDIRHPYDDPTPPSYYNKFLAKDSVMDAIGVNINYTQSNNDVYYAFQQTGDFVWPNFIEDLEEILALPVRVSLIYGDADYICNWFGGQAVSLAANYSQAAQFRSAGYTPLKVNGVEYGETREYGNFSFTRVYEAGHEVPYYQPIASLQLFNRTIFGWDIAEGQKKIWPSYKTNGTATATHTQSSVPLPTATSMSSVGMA
In words: Inhibition of the carboxypeptidase with 1,10-phenanthroline and phenylmethylsulfonyl fluoride. The settings on record: furylacryloyl-Ala-Lys as substrate, pH 7.0, 20 mM phosphate buffer, hydrolysis monitored at 340 nm. Here is the method: Inhibition of the carboxypeptidase with 1,10-phenanthroline and phenylmethylsulfonyl fluoride was evaluated using furylacryloyl-Ala-Lys as substrate at pH 7.0 in 20 mM phosphate buffer where hydrolysis was monitored at 340 nm.

The target of data set [2] is T1, Aspergillus oryzae ATCC 20386 carboxypeptidase I. The data set is described as follows: Substrate specificity of the carboxypeptidase (hydrolysis of N-CBZ-Ala-X / N-CBZ-Glu-X). Particulars: 2 mM substrate, 2 hour incubation, 4.9×10^−7 M carboxypeptidase. Here is the method: (§1) The substrate specificity of the carboxypeptidase was determined by measuring the hydrolysis of a substrate listed in Table 1 at pH 4.0 in 50 mM acetate buffer. o-Phthaldialdehyde together with dithiothreitol were used to monitor the liberation of free IIe, Glu, Lys, Arg, Asp, Asn, Gly, Phe, amd Tyr under enzymatic hydrolysis according to the procedure of Roth, M., 1971, Analytical Chemistry 43: 880. The kcat value for the hydrolysis of N-CBZ-Ala-X or N-CBZ-Glu-X was determined based on the assumption that molecular weight of the carboxypeptidase was 68 kD and that the enzyme preparation was homogeneous.

Data set [3] has as its system Aspergillus oryzae ATCC 20386 carboxypeptidase I. The data set is described as above. The settings on record: compared with literature values. The protocol:
as §1

Substrate in data set [4]: C[C@H](NC(=O)/C=C/c1ccco1)C(=O)N[C@@H](CCCCN)C(=O)O
The data set is described as follows: Km of the carboxypeptidase toward furylacryloyl-Ala-Lys. The settings on record: other: pH 4.0, 25° C.

Data set [5] is described as follows: Thermostability of the carboxypeptidase (residual activity). The settings on record: 10 minute incubation, 50 mM acetate buffer.
A short description of data set [6]: Specific activity of the carboxypeptidase (CPDU assay). Particulars: 0.5 mM N-CBZ-Ala-Glu, pH 4.5, 25° C. Here is the method:
The activity of the carboxypeptidase was determined by measuring the rate of specific hydrolysis of N-CBZ-Ala-Glu. One carboxypeptidase unit (CPDU) is the amount of carboxypeptidase which liberates 1 micromole of glutamate per minute from a 0.5 mM N-CBZ-Ala-Glu solution at pH 4.5 and 25° C. A reagent containing o-phthaldialdehyde in combination with dithiothreitol was used to monitor the liberation of free glutamate under enzymatic hydrolysis according to the procedure of Roth, 1971, supra. The o-phthaldialdehyde reagent was a solution of o-phthaldialdehyde (6 mM) and dithiothreitol (6.5 mM) in 0.1 M sodium tetraborate. Briefly, 0.05 ml of the enzyme solution in 20 mM acetate buffer, pH 4.5 was incubated with 1 ml of substrate. At regular time intervals, a 0.3 ml aliquot was withdrawn, mixed with 0.9 ml of the o-phthaldialdehyde reagent, and the absorption at A340, using a path length of 1 cm, of the resultant product was measured. Where the dependence of A340 on the incubation time was linear, the specific activity of the enzyme was calculated using the equation: specific activity=slope (optical density per min)×11.35. By this procedure, the specific activity of the purified carboxypeptidase was determined to be 11 CPDU per mg protein which is equivalent to 11 micromoles glutamate per minute per mg protein.

A further data set has as its system Casein. In words: Protein hydrolysis, degree of hydrolysis (DH), casein. Particulars: Casein 2% (w/v), pH 7.0, 18 hours at 50° C.; FLAVOURZYME 3 LAPU, carboxypeptidase 11.5 CPDU. The protocol:
(§2) Commercial grade soy meal, wheat gluten, casein and gelatin were used as protein substrates. The soy meal was prepared from defatted toasted soy grits 20/80/20 (Cargill BV, NL); vital wheat gluten was obtained from Crespel and Dieters, Denmark; casein was obtained as Na-Caseinate Miprodan (MD Foods, Denmark); and gelatin was obtained as Bonegelatin (DGF Stores, Denmark).
(§3) The substrates were prepared as a 2% (w/v) aqueous solution, in which the protein concentration was determined by the method of Kjeldahl. Two hundred mg of each substrate, obtained in the form of a dry composition, was dissolved in 9 ml of tap water and the pH was adjusted to 7.0. […]
(§4) The hydrolysates were cooled and the degree of hydrolysis (DH) was assayed in microtiter plates using OPA (ortho-phtaldialdehyde, Sigma Chemical Co., St. Louis, Mo.) as the detecting reagent. The DH, defined as described in by Adler-Nissen (1986, Enzymic Hydrolysis of Food Proteins, Elsevier Applied Science Publishers), was determined by reaction of the supernatant with OPA (ortho-phtaldialdehyde, Sigma Chemical Co., St. Louis, Mo.). […]
(§5) A volume of 25 μl of suitably diluted supernatant was mixed with 200 μl of OPA reagent in a microtiter plate well and allowed to react for exactly 2 minutes at 25° C. […] The degree of hydrolysis was calculated on basis of the total amount of protein in the hydrolysis mixture (not on basis of soluble protein).

For the next data set, the system named is Gelatin. The data set is described as follows: Protein hydrolysis, degree of hydrolysis (DH), gelatin. The settings on record: Gelatin 2% (w/v), pH 7.0, 18 hours at 50° C.; FLAVOURZYME 3 LAPU, carboxypeptidase 11.5 CPDU. The protocol:
as §2, §3, §4, §5

Another data set deals with Soy Meal. In words: Protein hydrolysis, degree of hydrolysis (DH), soy meal. The settings on record: Soy Meal 2% (w/v), pH 7.0, 18 hours at 50° C.; FLAVOURZYME 3 LAPU, carboxypeptidase 11.5 CPDU. The protocol: as §2, §3, §4, §5
Another data set concerns Wheat Gluten. The data set is described as follows: Protein hydrolysis, degree of hydrolysis (DH), wheat gluten. The settings on record: Wheat Gluten 2% (w/v), pH 7.0, 18 hours at 50° C.; FLAVOURZYME 3 LAPU, carboxypeptidase 11.5 CPDU. Here is the method:
as §2, §3, §4, §5

Data set [7] concerns soy meal, wheat gluten, casein and gelatin. The data set is described as follows: Protein hydrolysis, DH, summary for all substrates. Here is the method:
as §2, §3, §4, §5

Values joined by “and” are separate entries in the source; they are usually repeats but may differ in a detail not shown here. Equal values may be shown once. Residues, ends and D or L forms follow the SMILES beside them. *: point of attachment. Cbz = O=C(OCc1ccccc1)*

What is called Km is the substrate concentration at which the rate is half of its maximum. The residual activity is the share of the control activity or signal that is left under treatment. High values mean much activity left, low ones little activity left.

In the case of `O=S(=O)(F)Cc1ccccc1` [phenylmethylsulfonyl fluoride], in data set [1], the “Inhibition of carboxypeptidase activity” value was “inhibits carboxypeptidase activity completely”.
The same measure, in the same setting: for `c1cnc2c(c1)ccc1cccnc12` [1,10-phenanthroline] the value was “does not inhibit”.
Turning to `C[C@H](NC(=O)OCc1ccccc1)C(=O)N1CCC[C@H]1C(=O)O` [N-CBZ-Ala-Pro] (Cbz-Ala-Pro-OH), the “fraction of substrate solution hydrolyzed” value in data set [2] amounted to 16%.
Turning to `C[C@H](NC(=O)OCc1ccccc1)C(=O)N[C@@H](Cc1ccccc1)C(=O)O` [N-CBZ-Ala-Phe], the “kcat relative to acid carboxypeptidases O-1 and O-2 from Aspergillus oryzae” value in [3] was “at least 8.5 fold”.

B1: Aspergillus oryzae ATCC 20386 carboxypeptidase I (Aspergillus oryzae RIB40) (protein)
chain: LPGSTPASVGRRQLPKNPTGVKTLTTANNVTIRYKEPGAEGVCETTPGVKSYSGYVDTSPESHTFFWFFEARHNPETAPITLWLNGGPGSDSLIGLFEELGPCHVNSTFDDYINPHSWNEVSNLLFLSQPLGVGFSYSDTVDGSINPVTGVVENSSFAGVQGRYPTIDATLIDTTNLAAEAAWEILQGFLSGLPSLDSRVQSKDFSLWTESYGGHYGPAFFNHFYEQNERIANGSVNGVQLNFNSLGIINGIIDEAIQAPYYPEFAVNNTYGIKAVNETVYNYMKFANQMPNGCQDLISTCKQTNRTALADYALCAEATNMCRDNVEGPYYAFAGRGVYDIRHPYDDPTPPSYYNKFLAKDSVMDAIGVNINYTQSNNDVYYAFQQTGDFVWPNFIEDLEEILALPVRVSLIYGDADYICNWFGGQAVSLAANYSQAAQFRSAGYTPLKVNGVEYGETREYGNFSFTRVYEAGHEVPYYQPIASLQLFNRTIFGWDIAEGQKKIWPSYKTNGTATATHTQSSVPLPTATSMSSVGMA
For B1, the Km in data set [4] worked out at 400 µM.

B2: carboxypeptidase: carboxypeptidase purified from FLAVOURZYME broth, approximately 68 kDa serine carboxypeptidase, amino acid sequence SEQ ID NO: 2 (protein, listed as Aspergillus oryzae)
chain: MRGYEFLSVLPLVAASWALPGSTPASVGRRQLPKNPTGVKTLTTANNVTIRYKEPGAEGVCETTPGVKSYSGYVDTSPESHTFFWFFEARHNPETAPITLWLNGGPGSDSLIGLFEELGPCHVNSTFDDYINPHSWNEVSNLLFLSQPLGVGFSYSDTVDGSINPVTGVVENSSFAGVQGRYPTIDATLIDTTNLAAEAAWEILQGFLSGLPSLDSRVQSKDFSLWTESYGGHYGPAFFNHFYEQNERIANGSVNGVQLNFNSLGIINGIIDEAIQAPYYPEFAVNNTYGIKAVNETVYNYMKFANQMPNGCQDLISTCKQTNRTALADYALCAEATNMCRDNVEGPYYAFAGRGVYDIRHPYDDPTPPSYYNKFLAKDSVMDAIGVNINYTQSNNDVYYAFQQTGDFVWPNFIEDLEEILALPVRVSLIYGDADYICNWFGGQAVSLAANYSQAAQFRSAGYTPLKVNGVEYGETREYGNFSFTRVYEAGHEVPYYQPIASLQLFNRTIFGWDIAEGQKKIWPSYKTNGTATATHTQSSVPLPTATSMSSVGMA
Take B2: the residual activity in data set [5] (pH 4.0, 55° C.) is on record as 74%; in data set [5] (pH 4.0, 60° C.), 65%. The specific activity in data set [6] is 11 CPDU per mg protein and 11 micromoles glutamate per minute per mg protein. Besides, the DH with Casein, in the data set with Gelatin, with Soy Meal and with Wheat Gluten was 0 in each case. Also, the “effect on DH, enzyme alone” value in data set [7] was “no effect”. Further, the “effect on the DH obtained by FLAVOURZYME when added with FLAVOURZYME” value in data set [7] is given as “enhanced”.
